Read-outs that look alike come from different tables or passages of the source.

For data set [1], the target named is CurK-CurL ^ACPddK-G3SG3S-ddL^KS (Moorea producens).
Data set [2] addresses CurL ACP-dd (Moorea producens). Briefly: fluorescence polarisation. (In general: Polarisation of emitted light reports the rotation of a fluorescent probe.)
The target in data set [3] is CurK ACP-dd (Moorea producens). The experiment in a line: fluorescence polarisation.
The target in data set [4] is CurG ACP-dd (Moorea producens). Briefly: fluorescence polarisation.
Data set [5] addresses CurH ACP-dd (Moorea producens). The experiment in a line: fluorescence polarisation.
In data set [6] the target is CurI dd-KS-AT dimer (Moorea producens). The experiment in a line: SEC. In general terms: In gel filtration, larger molecules generally elute earlier.
Data set [7] addresses Avitag-CurG ACP-dd (Moorea producens). The experiment in a line: BLI. (BLI is a label-free optical method that tracks binding on a fibre tip over time.)
The target of data set [8] is CurK ACP-dd E2224R (Moorea producens). Briefly: fluorescence polarisation.
For data set [9] the target is unchanged. The experiment in a line: fluorescence polarisation. The source holds these as a separate data set.
The target of data set [10] is PikAIIID-^ACPddG (not stated | Moorea producens).
In data set [11] the target is CurL dd^KS (Moorea producens). The experiment in a line: crystal structure.
Data set [12] deals with the molecule itself.
Data set [13] deals with the molecule itself. Briefly: crystal structure.

For orientation: stoichiometry N means the number of molecules, sites or subunits per partner or assembly. For CurK-CurL ^ACPddK-G3SG3S-ddL^KS, the stoichiometry N in data set [1] is 2.

As a reminder, the Kd is the constant that tells how readily two partners part at equilibrium. With CurM dd-KS-AT (domain or fragment), the Kd in data set [2] was determined as 5.4 µM; in data set [3] it was 52 µM.

In turn, “CurH dd-KS-AT lacking helix αA and the dd^KS loop (domain or fragment)” gave a dissociation constant Kd in [4] of 117 µM.

With CurI dd-KS-AT (domain or fragment), the equilibrium dissociation constant (Kd) in data set [5] came to 20.5 µM.

Molecule “CurI dd-KS-AT dimer (domain or fragment)” came in with a stoichiometry N in data set [6] of 2. Besides, the Kd in [5] turned out to be 9.4 µM.

For the molecule CurH dd-KS-AT (domain or fragment), the dissociation constant Kd in data set [7] is 16.5 µM; in data set [8] it was 10 µM; in data set [4], 15.7 µM; in data set [9] it was 9.2 µM; in data set [3], 23.7 µM.

In [10], ddH^KS-PikAIV (enzyme) had a 10-deoxymethynolide (10-dml) produced, percent of wild type PikAIII/PikAIV of 188%; a narbonolide (nbl) produced, percent of wild type PikAIII/PikAIV of 70%; a pentaketide substrate consumed in the PikAIII/PikAIV two-module reaction of 86%.

CurL dd^KS (domain or fragment) returned a stoichiometry N in data set [11] of 2.

B1: CurG-CurH ^ACPddG-G3SG3S-ddH^KS (other, Moorea producens)
chain: LEAKLLDEIKQSSNQELESSIDQILESIINGGGSGGGSMLNKFTKKEQILSEKQQIKQLSPLQRAALALKKLETKLNNTLHE
Regarding B1, the “stoichiometry N” value in data set [12] came to 2.

B2: CurL dd-KS-AT (domain or fragment, Moorea producens)
chain: MNLKQEQEKEQSLSALQRALIALKDARSKLEKYETQSKEPIAIIGMSCRFPGGVDSPESFWQLLNDGVDAISEVPSNRWNINNYYDPDPDATGKISTRDGGFLSQIDGFDAPFFCISPREVQSLDPQQRLLLEVSWEAIERANIVPDQLFNSLTGVFIGIGSSDYLNQLATSEVPQAYWGTGNAPSAATGRLSYILGLTGPNLAVETACSSSLVSLHLACQSLRQQECNLALAGGVNLLLSPETSIIFSQAKMLSPDGRCKTFDASANGYVRGEGCGVIVLKRLSDAVANGDNVLAVIRGTAINQDGASGGLTVPNGPSQVAVIRKALSNGGVDPASVSYIEAHGTGTSLGDPIEVGAIGTVFGKTHSQEQPLIVGTAKTNIGHLEVAAGIAGLMKVVLQLQHQQIAPSLHFKQPNPYINWSQLPVQVSTQLTPWQTNGKSRIAGVSSFGFSGTNAHVVIEEAPKEGNSLSATVEENGNSTVKEDTLERAVYLLTLSAKTQAALDDLVNSYQNYLKNYPELRIADICYTANTCRSHFNNRLAVVASNQQELVEKLRQHQQGEEVTGIYSIELPNNSTAPKIALLFTGQGSQYVNMGRQLYQQAPVFRKALEQCNEILLGTETFREKSLLEILYPANQEQSNSSLLDQTAYTQPCLFALEYALFKLWQSWGIQPDVVMGHSVGEYVAATVAGVFSLEEGLKLIAARGRLMQQLPAGGEMVSVIASESKVLEIFKAMSLEEKVAIAAINGPESTVISGEAEAVGAIATHLESLSIKTKQLQVSHAFHSRLMEPMLAEFEAVAKQVTYSQPQISLISNVTGQQVGSEITSAEYWVNHVRQPVRFSESMTTLHQEGYELFLEIGPKPILLGMGRQCLPEGVGVWLPSLRPGVEAWQQMLQSLGQLYMKGIKVNWSGFDQDYACHKVAIPTYPFQRESYWIDT
For the molecule B2, in data set [13], the “stoichiometry N” value is 2. This molecule also yielded an equilibrium dissociation constant (Kd) in [3] of 4.5 µM.
